From US20240026407A1, “MODIFICATION OF SAPONINS” (GLAXOSMITHKLINE BIOLOGICALS SA, priority 2020, published 2024)

B1: 84 (protein, listed as Tenericutes bacterium)
chain: MVNEELKTLLHTLSLTTKLKLLTGANFWESEKVLGTDLPIIVMNDGPFGVRKPTVNVDSGMLMEVIPATAFPTTSALASSFDPELLEKMGKTLATECIDQGVDLLLGPGINIKRSPLCGRNFEYFSEDPYLTSEMASGLVRGLQSKGVGATLKHYAVNNQEKERYTTNAIVDKRALNEIYLRPFHNVIKNTEPFSVMCSYNQINGRHASRHYKLLTEKLRNEANFKGLVVSDWGAVVDHVDSINAGLNLEMPGGYQNTAELEKAVKDGEIKLETIDEMITPLLKFMMYKRDNPKPKVKCDYKKNLEVAQEIAEKSAVLLRNEDNLLPINKTAKVGLIGNFAIKPRYQGSGSSQINPHTLVSVHDAFIQNDVNFVYADGYAEHEVKPNKKKIAEAVKVAKNSDVVVLCVGLPESYEVEGYDRKTLDMPPSHNELIKEVAKVNENIVIVLSTGSPVTMPWINDVKSILLTHLAGSMTGPATYNLLFGVTNPSGKLSETYPLSLDKGLPGGEFLTSDQNVLYRESLYVGYRYYDTFREQVLFPFGHGLSYTQFNTSHHEIEEVKDGYNITMEVTNIGHIRGAEVIGIYTGKSRSLLYGPRKELRAFKKVYLDPGEKQKINIFLPTESLKAYCPVKQEWVLENVNYNVYVGINVQTTDEIFQILVDDANDLSYLKNYQKENEMYYRRADFNPSIKDFTTLFGGESLPLFFANRKRPFTLANNISDTTDYWWGRTIYKIMAKTSRKLAGDDVVLQEMAVETIKELPFRSLSALSSGEVSTNQRDAILLLVNGKPIRGIFKFLRKKK
B2: 152 (protein, listed as Kocuria rosea)
chain: MSDLWHGEEHAPGESDTAMTDATRTSGRAARLTELVDRLSLAEKVHLLTGETAFTLPGNERIGLAALAFSDGPTGVRGLTFVGGDAVALFPSATLIAGAFDDGIAEEVGRMLAEEAQRQHIHVVLGPTINLHRTPLGGRLFEAYSEDPYLTGRTAAAYVRGMQERGTAACLKHLVANESETLRNFMDSRVPETALRELYLLPFEMAVQDAGAWSMMAAYNDVNGVAATEHDHVQNGIVKGEWAWDGLIMSDWFATKRTAASASGGLDLVMPGPGGPWGERLVTAVRAGEVAEETIDDHVLRLLHLAERVGGLTPPGRQSRPWAQDLPAVDSPQRKEQLRRIAVRGMTVVANDGVLPLAVEGDAGQDVALIGRHAIDTVDMGGGSAVVNPPYLSTIAEGLAALLGDRVRVADGPAVRTRPVPADPAFLTDPATGTPGMQVVLLGADGTELTRYHSDSPAISLDGHDDLGEVPATAVLTTILANDAGPVRLGAVGAGRWDLVAEGQELSAELRLEGQDPGEAMLRPPAFAETVELPAAATLTATVAPAPVDWREVLLGDPGLGLAEESHLLQMTTAGKTALVAAPAPRPDDDLLAAAEAAAVAAGTAVVVVGLTEEQETEAADKTTLVLPGRQDELVRRVATAAERTVVVVNAATPVLMPWLDQVDAVLVAGLPGQEGGHAVAAALTGALEPTGRLVTSWPAADGAAPAWDVVPDGDRALSYDDGTFIGHRGYHAGHAPAPLFWFGHGLGYGTWEYGTVRARAGEGGPVVDVELTNTSSRASRETVQVYLDPAEDDQPIRLIGYQGVDVPSGATAAVRVRCDDRLLRRWDDAAGTWAPLAGGGELVLARGLGDVRARVPLA
B3: 274 (protein, listed as Modestobacter marinus)
chain: MAGDTTAPAELDRPWTNTSLSPQERARELVAAMTLEQKIAQLHGAMDTIDIYSMKADTAEGMEQLAAQIRVERHVAAIEELGIPRFRITNGPVGVGMGDGTPSPPATALPMTIGLAAGFDPALAREYGTVIGSETATLGQHVLEGPGVCLHRTPISGRNFEYFSEDPYLSGVMGVEVARAIQEHGVIAMAKHYVCNDQEYERFRADVEVDERTLRELYLLPFEMLVKDADLAAIMSAYNRVRGTYATEHRYLLHTVLREEWGWQGYVQSDFWSCRSAAPAVNAGLDHEMPDAKWLNEDNVKAALADTSLEIETVDRALVRRYTQMFRFGQFDRPYDPGEIDAEGHGAISRRIGEQIAVLLKNDGAVLPLEPGVQSVVVIGQATYVDEACLGGGGSSKVDPLYTVRPMDGLRDVLQTLGSSADLREVTVADDLSNLAEAQAAAATADVVVIMAGLVATEGADQPDAHMLNDQDRMIAEVGQVNVRTVVVLKDGNPVLMPWIDAVPAVLEAWNQGAEDGHVVADLLFGVVNPAGKLPTTYPRSWADTPFAGHPERYPGTDEGAGYPVLRYSEGRQMGYRWYQAQGITPLFPFGHGLSYTTFELSDLAVSPERTDGAAPLTVQLTVANTGDVAGAEVAQVYLELPEAAQQPPKRLVGFCKIWLEPGAAERISVTIDPAATNHPLSVWDDGAHDFVVLPGEYTVFVGSSSEDTPLSATVTID
B4: 102 (protein, listed as Bacteroides fragilis)
chain: MKATTSLATSCRRLLLWGVLTLQCLFSTAQKRFTADVEQQAEKILSQMTLDEKLSYIGGINWMYTRPLERFGIPRLKMSDGPQGLGTHGPSTAYPCALMLAATWNEQLATEYGSALGKDCRARGVHVLLGPAVNIYRAPMCGRNFEYMGEDPYLTSRMATGYIKGVQGQGVMATIKHFIANNSDYDRDHISSDIDERTLNEIYFPSFRAAVQEAEVGAVMSSYNLLNGIYTTEHPWLLKDVLRQQWGFKGILMSDWGSTHHCIPAVKGGLDLEMPAGSKMQPEELKYYLRTGDITIETIDEKVRHILQTLLAFGFRETQQPDTHIPLKNPQCAQTALNVASEGLVLLKNTNQILPIRSGKVKTIAVVGKNAQGYVCGGGSGEVHPFQYVSVLDGIRKEAAERDIRVEYLDVYDYLPTIIFTDTERKQKGFRAQYFDNMNLEGTPKVEQTETKINYSWSGGTGLKEMPKEQFSVRWNGTICPQETDEYLFTLGGDDGYRLYIDGKLIADEWHEGAFRNSTYRCMLEAGKKYDLKIEYFQKGGGAAVNFIWKQKNASNNLFVEALNRNDLVVACIGFNSDTEGEGRDRTFELPEDEAQLLQNTLQSKRPVVGIVNAGGNVEMQSWEPSLKGLLWAWYGGQEAGTAIARTLFGELNPSGKLPITFEKRWEDNPTFHSYYDPDGDKHVEYAEGIFVGYRGYDKLKREVQYPFGYGLSYTRFKLSAPTVGTPKTDGSVTVTCKLTNTGRTAGAEVVQLYVSNKDTTVEHPEKELKGFRKVYLEPGETKSIEITVPAEAFSHYDTGSRRFVIDRGSHDILLGFSSRDIKAKMSVGISR
B5: 178 (protein)
chain: MSELYCPIPPRDQDIYRFRQQFGANLGSTFVLGPHDNTGESNELQLLKTSLASTGLEQTRQKWQSHWHSALTDDDLVWLKDVAQCRTLRLPLSFYSLGPLFCRGTAFEGDPSEVYHHCWSTVKHLIEKCWFHGIGILIDFQASASGINLCASAKDRTIARDCVAFLAQEITFHSMSAVVGLSVSSGCEPAPDMCECYDEILKIANAIDACLPVYIDDNQAQCNKRVFKGCESDIPQFKSDISIGKIQIPSQMMLPETEVREKINKAKAERSGFQEKVLSQVSESWGSNERQSFVHGWNLGYDDALRFFGAAVQGILAPRKGADKIYDIELWVQQRKRDIDPEQLGENSAAWEDGLRRGIQDFYNIIGI
modifications: Aspergillus niger

How the values were obtained:
[1] = Experiment 4-1: screening of glucosidases for deglycosylation with purified QS-18 (0.04 mg/ml) at pH 7.5 and room temperature; assay type: biochemical, Quillaja saponaria; settings: pH 7.5, room temperature, 20 h, clarified E. coli lysate, QS-18 2150 to QS-21 1988 by LCMS/MS
Experimental: Nucleotide sequences were sub-cloned into pET24b+ for expression. 10 uL of E. coli cells (One Shot® BL21(DE3) chemically competent E. coli) were transferred to each well of a 96 well PCR plate (prechilled on ice). 10 uL autoclaved water was added to the DNA, resuspended by pipetting, and 1 uL of plasmid DNA (15-30 ng) was transferred to the competent cells. Immediately after addition, the resulting mixture was mixed by pipetting. Cells were heat shocked by placing the plate in a thermal cycler at 42° C. for 30 seconds then transferred directly to an ice bath for 2 min. 100 uL sterile Lysogeny Broth (LB) medium was added to each well containing transformed cells. The content of each plate was transferred into a 96-deep well plate pre-aliquoted with 400 uL LB and the plate was incubated at 37° C. with shaking and 85% humidity for 1 hour. After outgrowth, 500 uL of sterile LB containing 100 ug/mL kanamycin was added to the plates containing cells and plates incubated at 37° C. with shaking overnight (18 hours) with humidity control (85%).
1000 mLs of Overnight Express Media was supplemented with 1 mL kanamycin 50 mg/mL and 20 mL of 50% v/v glycerol added (50 ug/mL kanamycin final and 1% glycerol). 96-Well Assay Block 2 mL plates were aliquoted with 380 uL of media per well. Pre-inoculum (20 uL) from transformation plates was added. The plates were sealed appropriately and incubated at 37° C. at 300 with shaking for 2 h. After 2 h the temperature was lowered to 20° C. and incubation continued for 20 h.
The liquid cultures were centrifuged for 10 minutes at 4° C. The supernatant was discarded, plates blotted on an absorbent material to remove residue and the plates frozen at −80° C.
Lysis buffer was prepared according to the following protocol: • 1. Polymyxin B sulphate (0.5 mg/mL) was suspended in 100 mM potassium phosphate pH 7.5 • 2. The mixture was sonicated until polymyxin B sulphate had dissolved • 3. Lysozyme (1 mg/mL) and benzonase (0.1 uL/mL lysis buffer) were added
2 copies of each cell pellet plate were removed from −80 degC freezer and allowed to thaw. 200 uL of lysis buffer was added to each well of one copy of the cell pellet plates. Plates were shaken at room temperature for 10 mins. 190 uL of cell pellet/lysis buffer was transferred to a corresponding fresh cell pellet plate. These plates were incubated at room temperature with shaking for 2 hours. Lysate was clarified by centrifugation (10 min, 4 degC).
QS-18 was obtained by analogous methods to Example 3, collecting a QS-18 containing phenyl fraction following phenyl treatment (presence of m/z corresponding to key components was confirmed by MS and the phenyl fraction then used without further treatment). QS-18 solution was prepared by diluting aqueous QS-18 (ca 1 mg/mL) with 100 mM potassium phosphate pH 7.5 to 0.2 mg/ml. 40 uL clarified lysate was transferred into fresh 96 well PCR plates. 10 uL QS-18 solution added to each well of lysate to a final concentration of 0.04 mg/ml. Incubated at room temperature with shaking for 20 h. Quenched with 50 uL MeCN and shaken at room temperature for 10 mins. Samples were analysed by LC-MS/MS using a Waters Acquity H class coupled to a Waters Xevo Tandem Quadrupole (TQD) Mass Spectrometer.
Enzyme activity was calculated as: […]
Candidate enzymes with % conversion >0.72%, i.e. >3 S.D. above negative control, were considered to be positive hits and are listed below in Table 7. Sample results are shown in FIG. 10 for a QS-21 standard, FIG. 11 for negative control and FIG. 12 for treatment with the glucosidase of SEQ ID No. 262.

[2] = Experiment 4-2: screening of glucosidases for deglycosylation with purified QS-18 (1 mg/ml) at pH 6 and 30 deg C; assay type: biochemical, Quillaja saponaria; settings: pH 6, 30 degC, 18 hrs, clarified lysate, LCMS/MS
Experimental: Lysates were prepared in an identical manner to Experiment 4-1 above, except the lysis buffer was prepared in 100 mM potassium phosphate buffer pH 6. QS-18 solution was prepared by dissolving QS-18 in 100 mM potassium phosphate buffer pH 6 (2 mg/mL).
12 uL clarified lysate was transferred into fresh 96 well PCR plates. 12 uL QS-18 solution was added (1 mg/ml final concentration), plates sealed and incubated overnight (30° C.) for 18 hrs. After quenching with 25 uL MeCN and shaking for 10 mins (RT), samples were analysed using the LC-MS/MS protocol described in Experiment 4-1 and enzyme activity determined in an analogous manner.

Molecule	Expt 4-1 % conv [1]	Expt 4-2 % conv [2]
B1	0.8%	0.4%
B2	1.1%	0.5%
B3	0.9%	0.3%
B4	0.7%	0.4%
B5	0.5%	0.8%
